Measurements taken from article PMC7256037, “Identification and characterization of mammaglobin-A epitope in heterogenous breast cancers for enhancing tumor-targeting therapy” (Signal Transduction and Targeted Therapy, 2020).

Tests used:
[1] = target: T1, human mammaglobin-A (Mam-A) protein, antigen of the ELISA and SPR (Homo sapiens, UniProt Q13296); test: ELISA; indirect ELISA of the mAbs on Mam-A
T1 construct: mammaglobin-A, human

[2] = target: T2, mammaglobin-A (Mam-A) on breast cancer cells and in breast cancer tissue (Homo sapiens, UniProt Q13296); test: immunostaining of cells or tissue; ZR75.1 cells and tumor slides (GFP in the cytoplasm) fixed with cold methanol/acetone, mAb then AF594-labeled anti-mouse IgG, confocal microscopy; settings: one partner purified
T2 construct: mammaglobin-A, endogenous in human breast cancer cells and tissue; Cells were fixed with cold methanol/acetone before staining; also called membrane-associated Mam-A; source: endogenous, breast cancer cell lines (ZR75.1, MCF-7, SKBR3, MDA-MB-231) and breast cancer tissue sections
T2 sequence (Q13296 19-93): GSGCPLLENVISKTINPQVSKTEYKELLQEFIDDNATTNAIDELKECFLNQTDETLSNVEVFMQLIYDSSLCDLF

Peptide 733-3RE-2 = target: T3, Peptide 733-3RE-2 (Homo sapiens); test: immunostaining of cells or tissue; pre-blocking test: synthetic peptide pre-incubated with mAb785; binding of the peptide read from the loss of immunostaining of breast cancer sections; settings: both partners purified
T3 construct: residues 42-51 of human mammaglobin-A; also called truncated peptide without PV; source: synthetic peptide
T3 chain: YKELLQEFID

Measured: binding result

T1 sequence (Q13296 19-93): as above

B1: mAb785 (antibody, V domains shown)
VH: EVKLVESGGGLVKPGGSLKLSCAASGFTLSNHGMSWVRQTSEKRLEWVASISIRGNTYYLDSVEGRFTISRDDARNILYLQMSGLRSEDTAIYYCTYFTSVVWGQGTTLTVSS
VL: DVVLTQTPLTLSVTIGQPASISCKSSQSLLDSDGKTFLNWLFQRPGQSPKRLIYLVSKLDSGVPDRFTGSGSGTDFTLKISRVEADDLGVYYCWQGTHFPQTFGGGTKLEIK
notes: Whole monoclonal antibody raised against human Mam-A; detected with anti-mouse IgG secondary antibodies, so probably a mouse IgG; also called anti-Mam-A mAb785
binds: all assays above
